Experimental data from article PMC11648224, “RNA G-quadruplexes and calcium ions synergistically induce Tau phase transition in vitro”.

Target: Tau (Tau441, 2N4R) (human, UniProt P10636-8 1-441)
Test: SPR; 10 mM KCl; SPR (OpenSPR): 50 mM Tris-HCl pH 7.4, 10 mM KCl; biotin-RNA on streptavidin chip, 20 ul/min, 1:1 fit; temperature not stated
Conditions: protein: recombinant, tags: none stated (pET23a-human Tau441)

Sequence of Tau (Tau441, 2N4R) (P10636 other isoform, or with tags, fused parts or gaps): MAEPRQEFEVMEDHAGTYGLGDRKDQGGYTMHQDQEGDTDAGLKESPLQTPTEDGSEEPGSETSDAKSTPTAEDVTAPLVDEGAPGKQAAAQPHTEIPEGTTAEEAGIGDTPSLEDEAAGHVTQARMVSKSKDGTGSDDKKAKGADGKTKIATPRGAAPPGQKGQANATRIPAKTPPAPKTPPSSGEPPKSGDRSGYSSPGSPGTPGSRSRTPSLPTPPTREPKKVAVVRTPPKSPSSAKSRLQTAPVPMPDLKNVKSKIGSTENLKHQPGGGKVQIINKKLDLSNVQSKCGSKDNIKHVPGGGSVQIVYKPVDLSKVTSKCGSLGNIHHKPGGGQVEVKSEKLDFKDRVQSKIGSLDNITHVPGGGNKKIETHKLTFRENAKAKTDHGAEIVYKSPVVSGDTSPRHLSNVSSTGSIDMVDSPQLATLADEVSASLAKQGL

| Binder | Kd [nM] | Kd (RNA G-quadruplex) [nM] |
| --- | --- | --- |
| CAGCAGCAGCAGCAGCAGCAGCAG (ssRNA) [r(CAG)8] | 57.3 ± 13.9 |  |
| UUAGGGUUAGGGUUAGGGUUAGGG (structured_RNA) [G4tr r(UUAGGG)4] |  | 32.1 ± 8.38 |
| UUACCGUUACCGUUACCGUUACCG (ssRNA) [G4mt r(UUACCG)4] | 52.5 ± 14.3 |  |
| AAAAAAAAAAAAAAAAAAAAAAAA (ssRNA) [r(AAA)8] | 71.7 ± 27 |  |
